The values below come from the nanobody polyreactivity screen of Harvey et al. (2022).

The nature of this data set: yeast display, Sf9 membrane polyspecificity reagent, FACS + sequencing; frameworks hold sequencing errors. Summed up: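 Synthetic nanobody libraries on Saccharomyces cerevisiae BJ5465 were galactose-induced for 36–48 hours, stained 1 hour at 4 °C with 10% biotinylated, detergent-solubilized Sf9 membrane reagent and enriched on streptavidin microbeads. FACS then separated cells into low and high (top ~1%) gates by anti-HA (expression) and streptavidin (reagent binding) fluorescence. Genes were colony-PCR amplified, MiSeq 2 × 250 sequenced and CDR-length filtered. A clone's polyreactivity label is that of its gate of origin.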
For the sequence “QVHLVESGGGLVQAGGSLRLSCAASGSIFFGNAMGWYRQAPGKERQLVAAISTTGGSTYYADSVKGRFTISRDNAKNTVYLQMNSLKPEDTAVFFCNSDRATWWEQWWYDYWGQGTQVTVSS”, the “polyreactivity (PSR sort gate)” value was “low polyreactivity”.
For “QVHLVESGGGLVQAGGSLRLSCAASGSIFGPYMGWYRQAPGKERELVASVVSTYYADSVKGRFTISRDNAKNTVYLQMNSLKPEYTAVYYCNTQDTKNKSSVFVPSDYWGQGTQVTVSS” the value was “low polyreactivity”.
For “QVHLVESGGGLVQAGGSLRLSCAASGSIFNVNAMGWYRQAPGKERELVAAISSGGDTYYADSVKGRFTISRDNAKNTVYLQMNCLKPEDTAVYYCAKQSYTLYTLLYDYWGQGTQVTVSS” the value was “low polyreactivity”; for “QVHLVESGGGLVQAGGSLRLSCAASGSIFSWNAMGWYRQAPGKERELVAAISKRGTSTYYADSVKGRFTISRDNAKNTVYLQMNSLKPEDTAVYYCAARAQSYPYLSFDYWGQGTQVTVSS”, “high polyreactivity”.
For “QVHLVESGGGLVQAGGSLRLSCAASGSIFVYNSMGWYRQAPGKEMELVAGITFIGGSTYYADSVKGRFTISRDNAKNTVYLQKNSLKPEDTAVYYCNADVAPGIFYGYDSWGQGTQVTVSS” the value was “low polyreactivity”.
Turning to “QVHLVESGGGLVQAGGSLRLSCAASGSIFWWYAMGWYRQAPGKERELVAAIRWSGTTAFYADSVKGRFTISRDYAKNTVYLQMNSLKPEDTAVYYCNAEGGIWGGTTGYDYWGQGTQVTVSS”, the “polyreactivity (PSR sort gate)” value is listed as “low polyreactivity”.
Turning to “QVHLVESGGGLVQAGGSLRLSCAASGSIFYTNAMGWYSQAPGKERELVAAISYSGGRTYYADSVKGRFTISRDNAKNTVYIQMNSLKPEDTAVFYCNTVLRGGSTEAFDYWGQGTKVTVSS”, the “polyreactivity (PSR sort gate)” value is reported as “high polyreactivity”.
For “QVHLVESGGGLVQAGGSLRLSCAASGSIFYYNAMGSYRHAPGKERELVAAINWSGDRTYYADSVKGRFTISRDNAKNTVYLQMNSLKPEYTAVYYCAATAWPGRYWRQEVDYWGQGTQVTVSS” the value was “high polyreactivity”; for “QVHLVESGGGLVQAGGSLRLSCAASGSILGSNAMGWYRQAPGKERELVAAISSGGSTDYADSVKVRFTISRDNAKNTVYLQMYCLKPEDTAVYYCAAGFIYHYGLYKIYDYYYWGQGTQVTVSS”, “low polyreactivity”.
For “QVHLVESGGGLVQAGGSLRLSCAASGSILSDNTLGWYRQAPGKERELVAAISRSGGTTYYADSVKGRFTISRDNAKNTVYLQMNSLKPEDTAVYYCAARYYYRYNYWGQGTQVTVSS” the value was “high polyreactivity”; for “QVHLVESGGGLVQAGGSLRLSCAASGSTFAANAMGWYRQAPGKERELVAAITSSGGSTYYADSVKGRFTISRDNAKNTVYLQMNSLKPEDTAVYYCKKDIERYFRIYDSWGQGTQVTVSS”, “low polyreactivity”.
For “QVHLVESGGGLVQAGGSLRLSCAASGSTFDPNAMGWYTQAPGKERELVAAISYTGGRTYYADSVKGRFTISRDKAKNTVYLQMNSLKPEATAVYYCAVLVVGSPTQDEPYVSGVEHDYWGQGTQVTVSS” the value was “low polyreactivity”; for “QVHLVESGGGLVQAGGSLRLSCAASGSTFFIYTMGWYRQAPGKEREFVAAISWTGGRTYYADSVKGRFTISRDNAKNTVFLQMNSLKPEDTAVYYCAARYKYYSYDYWGQGTQVTVSS”, “high polyreactivity”; for “QVHLVESGGGLVQAGGSLRLSCAASGSTFFLYAMGWYRQAPGKERELVAAISSGGSTYYADSVKGRFTISRDNAKNTVYLQMTRLKPEDTAVYYCARDRIDTTDRTWRGDYWGQGTQATVSS”, “low polyreactivity”.
With “QVHLVESGGGLVQAGGSLRLSCAASGSTFGLKAMGWYRQAPGKEREFVASINFNDGSTYYADSVKGRFTISRDNAKNTVYLQMNSLKPEDPAVYYCAVELWWKWPFYYWGQGTQVTVSS”, the “polyreactivity (PSR sort gate)” value is on record as “high polyreactivity”.
For “QVHLVESGGGLVQAGGSLRLSCAASGSTFLPNAMGWYRQAPGKERELVAAITNGGGTNYADSVKGRFTISRDNAKNTVYLQMYSLKPEDTAVYYCNADSTYFGGHDYWGPGTQVTVSS” the value was “low polyreactivity”; for “QVHLVESGGGLVQAGGSLRLSCAASGSTFNYNAMGWYRQAPGKERELVAAISGSGGSTYYADSVKGRFTISRDNAKNSVYLQMNSLKPEDTAVDYCAGLYGPGRAFDYWGQGTQVTVSS”, “low polyreactivity”; for “QVHLVESGGGLVQAGGSLRLSCAASGSTFSIYAMGWYRQAPGKERELVAAINSGGDTNYADSVKGRFTISRDNAKNTVYLQMNSLKPEDTAVYYCAKQVYTSRRSRGRYGFGYWGQGTQVTVSS”, “high polyreactivity”.
For “QVHLVESGGGLVQAGGSLRLSCAASGSTFTLNTMGWYRQAPGKERELVAGIRSGGSTYYADSVKGRFTISRDNAKNTVYLQMNSLKPEDTAVYYCAADRRWFAYWFDYWGQGTQVTVSS” the value was “low polyreactivity”.
For “QVHLVESGGGLVQAGGSLRLSCAASGSTFTPYAMGWYRQAPGKERELVAAITWRTGSTRYADSVKGRFTISRDNAKNTVYLQMNSLKPEDTAVYYCAAKVPRFGAPGVNYWGQGTQVTVSS” the value was “high polyreactivity”; for “QVHLVESGGGLVQAGGSLRLSCAASGSTFTYNTMGWYRQAPGKERELVAAITWSGGRTYYADSVKGRFTISRDNAKNTVYLQMNSLKPEDTAVYYCNADSSGVTSAYDYWGQGTQVTVSS”, “high polyreactivity”; for “QVHLVESGGGLVQAGGSLRLSCAASGSTFTYYAMGWYRQAPGKERELVAAITGRGGRTYYADSVKGRFTISRDNAKNTVYLQMNSLKPEDTAVYYCARYPSSDTYWTKYDYWGQGTQVTVSS”, “high polyreactivity”.
In the case of “QVHLVESGGGLVQAGGSLRLSCAASGSTFTYYDMVWYRKAPGNETELLATIDSTTRTYYADSVKGRFTISRDNAKNTVSLQMNSLKPEETAVYYCAADLTWAYFYYLFYRYDYWGQGTQVTVSS”, the “polyreactivity (PSR sort gate)” value was “low polyreactivity”.
For the sequence “QVHLVESGGGLVQAGGSLRLSCAASGSTFYRYAMGWYRQAPGKEREFVAAISTRGGSTHYADSVKGRFTISRDNAKNTVYLQMNSLKPEDTAVSYCNARGYYSVPSNTGIRYYRFDYWGQGTQVTVSS”, the “polyreactivity (PSR sort gate)” value is on record as “low polyreactivity”.
For “QVHLVESGGGLVQAGGSLRLSCAASGSTLYDNAMGWYRQAPGKERELVAAITRRGAGTYYADSVKGRFTISRDNAKNTVYLQMNSLKPEDTAVYYCNAGRPYFVRYYYWGHGTQVTVSS” the value was “high polyreactivity”; for “QVHLVESGGGLVQAGGSLRLSCAASGYTFLANAMGWYSQAPGKERELVAAISSGGTTYYADSVKGRFTISRDNAKNTVYLQMNSLKPEDTAVYYCATVFRDYDFNHWGQGTQVTVSS”, “low polyreactivity”; for “QVHLVESGGGLVQAGGSLRLSCAASRSTFVNYAMGWYRQAPGKERELVAGISRSGGSTYYADSVKGRFTISRDNAKNTVYLQMNSLKPDDTAVYYCAKRYGRLTRYDYWGQGTQVNVSS”, “high polyreactivity”.
For “QVHLVESGGGLVQAGGSLRLSCAASVFTFNSNAMGWYRQAPGKERELVAAISWSGGSTYYADSVKGRFTISRDNAKNTVYLLMNSLKPEDTAVYYCAKGYRRVYGPFYYWGQGTQLTVSS” the value was “low polyreactivity”; for “QVHLVESGGGLVQAGGSLRLSCAATGSTFSNYAMGWNRQAPGKERELVASISNGGSTNYADSVKGRFTISRDNANNTVYLQMNSLKPVDTEVYFCIAESKAKYDYWGQGTQVSVSS”, “low polyreactivity”; for “QVHLVESGGGLVQAGGSLRLSCAATGSTFTINAMGWYRQAPGKERELVAAINDGDDTYYADSVKGRFTISRDNAKNTVYLQMNSLKPEDTAVYFCAADIIYGYEVYTYTSDYWGQGTQVTVSS”, “low polyreactivity”.
